Reference: the supplement of paper PMC10567573
± gives the standard deviation.

Experiment: protein stability index of a GFP-peptide fusion (GPS, HEK-293T) (PSI 1-6); higher = more stable
[1] = treatment: DMSO, c terminus: a fixed tail appended
[2] = treatment: MLN4924 1 uM, 8 h, c terminus: a fixed tail appended
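Note: 24-mer peptide tiles fused after GFP, lentivirally expressed, FACS-sorted into six equal bins by GFP/DsRed ratio, decoded by Illumina sequencing, PSI is the read-weighted mean bin number.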

Sequence	protein stability index [1]	protein stability index [2]	protein stability index (treatment: DMSO, c terminus: native)	protein stability index (treatment: MLN4924 1 uM, 8 h, c terminus: native)
EYDYLFKVVLIGDSGVGKSNLLSR [RAB11A]	2.6 ± 0.65	2.39 ± 0.7	–	–
EYECRRRMLMKRLDVTVQSFGWSD [FAM98B]	2.48 ± 0.14	2.45 ± 0.11	–	–
EYLLSFPAGKTPVPAGEEEGELGE [VPS39]	5.25 ± 0.43	5.31 ± 0.071	–	–
EYVLLKALALANSDSVHIEDAEAV [ESRRA]	3.36 ± 0.33	3.55 ± 0.37	–	–
FAHHSLFLHVRKATRAMGLLNTLS [TMEM175]	2.6 ± 0.78	2.18 ± 0.23	–	–
FAKKLVDRTWTLCGTPEYLAPEVI [PRKX]	2.63 ± 0.8	2.29 ± 0.19	–	–
FCISLLRERFMECLMIGRDLVRLL [INTS3]	2.27 ± 0.28	2.29 ± 0.13	–	–
FCQMLAVVETINAAIGVTTSPVLP [HACD3]	2.69 ± 0.4	2.54 ± 0.23	–	–
FDAALVSFINFFTSVLATLVVFAV [SLC6A17]	3.44 ± 0.4	3.44 ± 0.97	–	–
FEDAKEKMREFTKTIKRPFGVKYN [TPH1]	2.9 ± 0.21	3.1 ± 0.26	–	–
FEGRTPMHVACQHGQENIVRILLR [RIPK4]	2.95 ± 0.49	2.95 ± 0.2	–	–
FELEDSNEIFTQLYRTLFSVINNG [PDS5B]	2.15 ± 0.47	2.41 ± 0.23	–	–
FENGQKAAVVHHFESFPAGSTLIF [TOR1AIP2]	2.05 ± 0.42	2.12 ± 0.2	–	–
FEQTPALTKHEWTEALGCDPPLSQ [ZNF8]	4.56 ± 0.26	4.6 ± 0.13	–	–
FHIMKRKFTNKEWETIRSFKDEWT [AASDHPPT]	–	2.09 ± 0.16	–	–
FIFTFVKKKKIGFYFEVCGMMVES [PCDHGA10]	3.34 ± 0.57	–	–	–
FKDSAGKSPTGLKLKNDTENHQPV [ZNF75A]	4.88 ± 0.22	5.03 ± 0.18	–	–
FKWYLENVYPEMRVYNNTLTYGEV [GALNT9]	2.38 ± 0.48	2.43 ± 0.35	–	–
FLEALSSRYLGDSGLDDFFLDIDT [SERTAD3]	2.4 ± 0.4	2.41 ± 0.39	–	–
FLIGAYAVIYLKKTPEEAYRALLS [CDC14A]	2.71 ± 0.8	2.7 ± 0.6	–	–
FLLLYLFTLGTNAIIISTIVLDRA [OR10K2]	3.39 ± 0.28	3.23 ± 0.53	–	–
FLSYYRLTRFLSRVIKCDPDCLRA [CCND1]	2.23 ± 0.56	2.25 ± 0.54	–	–
FLYSHGVPRTLSPHQYHSVHGVGM [TBX5]	2.31 ± 0.38	2 ± 0.24	–	–

Sequence	protein stability index [1]	protein stability index [2]	protein stability index (treatment: DMSO, c terminus: native)	protein stability index (treatment: MLN4924 1 uM, 8 h, c terminus: native)
FMEKRNQWLVSQLSAASPDTGHDS [TRAF3IP2]	2.76 ± 0.34	3.21 ± 0.58	–	–
FNEQTWEVSQQDPSHGEVGEHKDR [ZSCAN9]	5.38 ± 0.26	5.35 ± 0.17	–	–
FQILKYLFQIDVYDFMNSAFSPIV [MIA2]	2.75 ± 0.038	2.85 ± 1	–	–
FQIYDKEASGYVDRDMFFKICESL [EFHC1]	2.29 ± 0.15	2.5 ± 0.15	–	–
FQMEKIEHGYENMNHFTVNLNREE [TRIM55]	3.21 ± 0.47	3.57 ± 0.59	–	–
FRNIKQEPFSARVLVLCVFNSILP [SOAT1]	2.9 ± 0.35	2.87 ± 0.59	–	–
FRRAPSWRKRFRPREHHGRGGMLS [PPFIA4]	3.11 ± 0.27	3.99 ± 0.078	–	–
FRRGEKLRVISDEGGWWKAISLST [SLA]	3.3 ± 1.1	2.13 ± 0.72	–	–
FSFLGLLALGVSLLCNAITGITLL [PTGFR]	2.77 ± 0.31	3.09 ± 0.98	–	–
FSRENLSKDLYLISQMDSDQFIPI [LARP4]	2.17 ± 0.45	2.13 ± 0.36	–	–
FSTGIKMGQHISLAPIHKLEEALY [MNAT1]	2.28 ± 0.48	2.08 ± 0.26	–	–
FSTYTSDKDENKLSEASGGRAENG [ZC3H15]	5.38 ± 0.44	5.23 ± 0.58	–	–
FTNCYIYNKPTDDIVLMAQALEKI [BRD3]	2.43 ± 0.45	1.97 ± 0.12	–	–
FTQPLLPAFTVWCGSFQVTTGLQV [FSD1]	3 ± 0.12	3.03 ± 0.5	–	–
FTVRPDVTQNSTAEPSRFSSSDSD [FCHO1]	5.09 ± 0.32	5.06 ± 0.14	–	–
FVEEIKKLATQHKQLISQTKKKQW [ZMYND11]	2.73 ± 0.77	2.13 ± 0.33	–	–
FVGAGRMAGAIAQGLIRAGKVEAQ [PYCR3]	2.96 ± 0.52	2.9 ± 0.33	–	–
FVHELHLSRLQRVKFCLLGALLAP [LPCAT4]	2.41 ± 0.71	2.06 ± 0.34	–	–
FVLDENDNAPAVLHPRPDWEHSAP [PCDHGC5]	3.33 ± 0.22	3.62 ± 0.31	–	–
FVLNRLQYAIISEAWRLVEEGIVS [CRYL1]	3.17 ± 0.66	3.09 ± 0.24	–	–
FVQREEQLQFLIRYHRFISFALYL [CDS1]	2.4 ± 0.68	2.68 ± 0.9	–	–
FYQLVWSALPFITYLENKGHRYPC [POP5]	2.88 ± 0.69	3.09 ± 0.53	–	–
GAAAQGQTQTVAAQAQALAAQAAA [PI4K2A]	5.07 ± 0.21	4.95 ± 0.21	–	–

Sequence	protein stability index [1]	protein stability index [2]	protein stability index (treatment: DMSO, c terminus: native)	protein stability index (treatment: MLN4924 1 uM, 8 h, c terminus: native)
GACIVNSENKIVGIGYNGMPNGCS [DCTD]	3.04 ± 0.33	3.21 ± 0.43	–	–
GALETRSLKDHKVSFLRSGTKLIF [C2CD2L]	2.13 ± 0.24	2.1 ± 0.42	–	–
GANKEVQELLERGLLQLDHRGLRC [RSAD1]	3.39 ± 0.12	3.66 ± 0.31	–	–
GCGADSKKKRPPQPPEESQPPQSQ [PLK2]	5.52 ± 0.35	5.53 ± 0.18	–	–
GCGYGCQLHHVVYCFMIAYGTQRT [FUT8]	3.19 ± 0.45	3.06 ± 0.57	–	–
GCLGHGSLTDISQPTIVEALLGYE [NEK8]	3.1 ± 0.11	3.18 ± 0.4	–	–
GDFWRMIWEQRSATVVMMTKLEER [PTPRD]	2.77 ± 0.38	2.36 ± 0.18	–	–
GDIIRLEHKETSRNLHSHYHEAPM [POMT2]	3.35 ± 0.13	3.57 ± 0.12	–	–
GDSASEEKSGSAEPFVLPASSVES [FBXO34]	5.39 ± 0.33	5.42 ± 0.42	–	–
GEALGRDHSEHLSGSSYRDALQRY [RBMY1A1]	4.33 ± 0.22	4.26 ± 0.29	–	–
GEDCKLPPQPCATACKPVIRVPSV [KRT36]	3.3 ± 0.22	3.23 ± 0.22	–	–
GENSDCHRDSSQAIPITELTKSQV [ZNF8]	4.94 ± 0.12	5.29 ± 0.23	–	–
GERPEEGVAGGLNRNQGLNRLMLA [TCF25]	3.88 ± 0.44	4.02 ± 0.47	–	–
GFGILGHSQNLAKQQRNEVSFVIH [SEPHS2]	2.25 ± 0.47	2.32 ± 0.32	–	–
GFSSGRHRWQVDLQLGDGGGCTVG [TRIM15]	2.93 ± 0.29	3.07 ± 0.27	–	–
GFTSYLGFGDEDTGLELIAEESNP [MIA2]	4.61 ± 0.22	–	–	–
GGGREPQGLAEKSPLQTIGEEQTQ [WDR41]	5.31 ± 0.26	5.58 ± 0.17	–	–
GGIIAPFIPSLKYVQWSLPFIVFG [SLC22A15]	2.75 ± 0.39	2.86 ± 0.32	–	–
GGQDSFESIESYDSCDRLTQSWSS [ETS1]	3.68 ± 0.67	3.84 ± 0.3	–	–
GIREASSGGGGSSSNFHINVEESV [KRT15]	4.92 ± 0.18	5.11 ± 0.28	–	–
GKPLYLIFRNLCQMQEDNSSFSLL [INTS3]	2.37 ± 0.41	2.28 ± 0.38	–	–
GKRPSQEEDTQSIGPKVQRQSTN [CRY1]	–	–	5.35 ± 0.28	5.45 ± 0.11
GKSFSQNTNLHTHQRTHTGEKPFT [ZNF75A]	4.01 ± 0.28	4.25 ± 0.35	–	–

Sequence	protein stability index [1]	protein stability index [2]	protein stability index (treatment: DMSO, c terminus: native)	protein stability index (treatment: MLN4924 1 uM, 8 h, c terminus: native)
GKTPVCHQCHKVIRGRYLVALGHA [PDLIM7]	2.1 ± 0.1	2.72 ± 0.33	–	–
GLALESSSGLQDVTGPDNGVRESE [NFE2L1]	5.57 ± 0.36	5.53 ± 0.28	–	–
GLALGGGLELALACDIRVAASSAK [AUH]	2.67 ± 0.4	2.9 ± 0.23	–	–
GLKKLNLHEEEHVLLMAICIVSPD [VDR]	3.13 ± 0.57	2.83 ± 0.54	–	–
GLRRVLDELTLARTDLEMQIEGLN [KRT15]	2.71 ± 0.3	2.66 ± 0.19	–	–
GLSIPSHSSELTEQKLRACLEGSI [RPAIN]	3.63 ± 0.39	3.53 ± 0.24	–	–
GLSLTDESDSCVSFEAPLTPLIQQ [PSD2]	4.29 ± 0.35	4.15 ± 0.29	–	–
GNEEEESKIFTTLDPASLAWLTEE [DDIT3]	5.06 ± 0.2	5.09 ± 0.14	–	–
GNGVHVCNVKYKRWALLSCRGKKP [KLHDC10]	2.73 ± 0.35	2.94 ± 0.27	–	–
GNLNIHQRTHTGEKPYGCIDCGKA [ZNF649]	3.96 ± 0.38	4.14 ± 0.4	–	–
GNRINVPMVRKRSVSNSTQTSSSS [DLC1]	4.44 ± 0.13	4.65 ± 0.2	–	–
GPEPPPVYTNLSSYSPASASSGGA [JUNB]	4.6 ± 0.5	4.76 ± 0.3	–	–
GPSEPGGTHPEDHQGHSDQHHHHH [RHOBTB2]	5.65 ± 0.073	5.32 ± 0.24	–	–
GPVAGLDDSGGPTPSSYAPSHPPR [ZBTB22]	4.92 ± 0.15	4.79 ± 0.13	–	–
GQEYAAKIINTKKLSARDHQKLER [CAMK2D]	3.96 ± 0.58	3.82 ± 0.096	–	–
GQGGKLWDPSVQSCKEGLSPRGPA [ZNF263]	3.9 ± 0.12	4.08 ± 0.16	–	–
GQPSEPEHGPSPGQDTFCQGKADG [CHIT1]	5.45 ± 0.32	5.63 ± 0.23	–	–
GRCGPQAARAAGRDVAAEAVARSP [POMT2]	4 ± 0.35	3.63 ± 0.15	–	–
GRDALLDQIRQGIQLKSVADGQES [WASL]	5.43 ± 0.36	5.22 ± 0.63	–	–
GRDGYDYDGYRLRVEFPRSGRGTG [SRSF1]	3.17 ± 0.37	3.26 ± 0.36	–	–
GRGLKSHAYIHSVQFSHHVFLNLH [USP39]	2.84 ± 0.45	2.62 ± 0.65	–	–
